From publication PMC6506529, “Structural Insights into Catalytic Versatility of the Flavin-dependent Hydroxylase (HpaB) from Escherichia coli” (Scientific Reports, 2019)

Legend:
Conditions in all cases: apparent, 10 μM FAD, 1 mM NADH, 500 nM HpaC, 20 mM KPi pH 7.0, 30 °C
O=C(O)/C=C/c1ccc(O)cc1 [1] = experiment: HPLC of product and substrate; Michaelis-Menten fit; assay type: biochemical, Escherichia coli
Description: (§1) HPLC of product and substrate; Michaelis-Menten fit on EcHpaB

O=C(O)/C=C/c1ccc(O)cc1 [2] = experiment: purified protein; assay type: biochemical, Escherichia coli
O=c1ccc2ccc(O)cc2o1 = experiment: purified protein
O=C(O)/C=C/c1ccc(O)cc1 [3] = experiment: purified protein; assay type: biochemical, Escherichia coli; remark: listed apart in the source
Description: as §1

purified protein [4] = substrate: Oc1ccc(/C=C/c2cc(O)cc(O)c2)cc1; experiment: purified protein
purified protein [5] = substrate: O=c1ccc2ccc(O)cc2o1; experiment: purified protein; remark: listed apart in the source
purified protein [6] = substrate: O=C1C[C@@H](c2ccc(O)cc2)Oc2cc(O)cc(O)c21; experiment: purified protein
[7] = substrate: O=C(O)/C=C/c1ccc(O)cc1; experiment: HPLC of product and substrate; Michaelis-Menten fit; assay type: biochemical, Escherichia coli; remark: listed apart in the source

“EcHpaB (Escherichia coli; A211D/E216M/F208A/G207M/G209M/G215A/M214G/N217V/Q212G/S210V/V213S)” gave a Km (O=C(O)/C=C/c1ccc(O)cc1 [1]) of 235.3 ± 52.5 µM, a kcat (O=C(O)/C=C/c1ccc(O)cc1 [1]) of 0.375 ± 0.0217 s⁻¹ and a kcat/Km (O=C(O)/C=C/c1ccc(O)cc1 [1]) of 1560 M⁻¹ s⁻¹.

Work on “EcHpaB (Escherichia coli; E216M/G215A/N217V)” yielded a Km (O=C(O)/C=C/c1ccc(O)cc1 [1]) of 235.6 ± 40.2 µM, a kcat (O=C(O)/C=C/c1ccc(O)cc1 [1]) of 0.497 ± 0.0217 s⁻¹ and a kcat/Km (O=C(O)/C=C/c1ccc(O)cc1 [1]) of 2100 M⁻¹ s⁻¹.

“EcHpaB (Escherichia coli; A211D/F208A/G207M/G209M/S210V)” gave a Km (O=C(O)/C=C/c1ccc(O)cc1 [2]) of 387.9 ± 32.7 µM, a kcat (O=C(O)/C=C/c1ccc(O)cc1 [2]) of 0.183 ± 0.00667 s⁻¹ and a kcat/Km (O=C(O)/C=C/c1ccc(O)cc1 [2]) of 470 M⁻¹ s⁻¹.

Work on “EcHpaB (Escherichia coli; A211D/E216S/F208S/M214S/N217D/Q212L/V213G)” yielded a Km (O=c1ccc2ccc(O)cc2o1) of 176.9 ± 35.9 µM, a kcat (O=c1ccc2ccc(O)cc2o1) of 0.348 s⁻¹ and a kcat/Km (O=c1ccc2ccc(O)cc2o1) of 2000 M⁻¹ s⁻¹. It also gave a Km (O=C(O)/C=C/c1ccc(O)cc1 [2]) of 132.1 ± 29.1 µM, a kcat (O=C(O)/C=C/c1ccc(O)cc1 [2]) of 0.365 ± 0.0167 s⁻¹ and a kcat/Km (O=C(O)/C=C/c1ccc(O)cc1 [2]) of 2800 M⁻¹ s⁻¹.

For “EcHpaB (Escherichia coli; A211D/E216M/F208A/G207M/G209M/G215A/N217V/S210V)”, the Km (O=C(O)/C=C/c1ccc(O)cc1 [3]) was 210.8 ± 85.3 µM, the kcat (O=C(O)/C=C/c1ccc(O)cc1 [3]) was 0.512 ± 0.0617 s⁻¹ and the kcat/Km (O=C(O)/C=C/c1ccc(O)cc1 [3]) was 2400 M⁻¹ s⁻¹.

B1: EcHpaB (Escherichia coli) (protein)
chain: MKPEDFRASTQRPFTGEEYLKSLQDGREIYIYGERVKDVTTHPAFRNAAASVAQLYDALHKPEMQDSLCWNTDTGSGGYTHKFFRVAKSADDLRHERDAIAEWSRLSYGWMGRTPDYKAAFGCALGGTPGFYGQFEQNARNWYTRIQETGLYFNHAIVNPPIDRHLPTDKVKDVYIKLEKETDAGIIVSGAKVVATNSALTHYNMIGFGSAQVMGENPDFALMFVAPMDADGVKLISRASYEMVAGATGSPYDYPLSSRFDENDAILVMDNVLIPWENVLLYRDFDRCRRWTMEGGFARMYPLQACVRLAVKLDFITALLKKSLECTGTLEFRGVQADLGEVVAWRNTFWALSDSMCSEATPWVNGAYLPDHAALQTYRVLAPMAYAKIKNIIERNVTSGLIYLPSSARDLNNPQIDQYLAKYVRGSNGMDHVQRIKILKLMWDAIGSEFGGRHELYEINYSGSQDEIRLQCLRQAQSSGNMDKMMAMVDRCLSEYDQNGWTVPHLHNNDDINMLDKLLK
notes: (α2)2 tetramer; expressed in E. coli BW25113 (F') from pZE12-luc, purified; assayed with separate purified HpaC reductase
Molecule B1 has a Km (purified protein [4]) of 174.3 ± 17.9 µM, a kcat (purified protein [4]) of 0.437 s⁻¹ and a kcat/Km (purified protein [4]) of 2500 M⁻¹ s⁻¹. For the same molecule, the Km (purified protein [5]) was 217.0 ± 60.6 µM, the kcat (purified protein [5]) was 0.418 s⁻¹ and the kcat/Km (purified protein [5]) was 1900 M⁻¹ s⁻¹. The Km (purified protein [6]) was 349.8 ± 77.6 µM, the kcat (purified protein [6]) was 0.15 s⁻¹ and the kcat/Km (purified protein [6]) was 400 M⁻¹ s⁻¹. For the same molecule, the Km [7] was 137.6 ± 21.0 µM, the kcat [7] was 0.387 ± 0.0117 s⁻¹ and the kcat/Km [7] was 2800 M⁻¹ s⁻¹.
